Tests used:
CSP-NPNA5.5-10x-1210 Fab [1] = test: ITC
CSP-NPNA5.5-8x-1210 Fab [2] = test: ITC
CSP-NPNA5.5-10x-1210 Fab [3] = test: ITC; remark: listed apart in the source
CSP-NPNA5.5-8x-1210 Fab [4] = test: ITC; remark: listed apart in the source
CSP-NPNA5.5-12x-1210 Fab [5] = test: ITC
CSP-NPNA5.5-12x-1210 Fab [6] = test: ITC; remark: listed apart in the source
[7] = target: full length PfCSP (NF54 strain) (Plasmodium falciparum (NF54 strain), UniProt P19597 20-384); test: BLI; avid
Chain of full length PfCSP (NF54 strain) (P19597 20-384): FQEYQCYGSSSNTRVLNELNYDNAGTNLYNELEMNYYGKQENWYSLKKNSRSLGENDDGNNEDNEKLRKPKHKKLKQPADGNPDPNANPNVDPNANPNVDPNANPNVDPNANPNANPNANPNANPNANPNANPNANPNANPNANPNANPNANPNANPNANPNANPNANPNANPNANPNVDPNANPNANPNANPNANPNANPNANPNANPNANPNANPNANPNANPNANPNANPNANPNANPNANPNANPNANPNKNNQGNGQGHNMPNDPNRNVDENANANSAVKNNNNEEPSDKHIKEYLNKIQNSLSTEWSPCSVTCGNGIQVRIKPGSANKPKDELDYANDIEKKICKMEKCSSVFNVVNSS

| Binder | Kd (CSP-NPNA5.5-10x-1210 Fab [1]) [nM] | Ka (CSP-NPNA5.5-8x-1210 Fab [2]) [M⁻¹] | Ka (CSP-NPNA5.5-10x-1210 Fab [3]) [M⁻¹] | Kd (CSP-NPNA5.5-8x-1210 Fab [4]) [nM] | Kd (CSP-NPNA5.5-12x-1210 Fab [5]) [nM] | Ka (CSP-NPNA5.5-12x-1210 Fab [6]) [M⁻¹] | Kd [7] [nM] |
| --- | --- | --- | --- | --- | --- | --- | --- |
| 1210 Fab (Fab, V domains shown) VH: QVQLVESGGGVVQPGRSLRLSCAASGFTFSNYGMHWVRQAPGKGLEWVAVIWYDGSKKYYADSVKGRFTISRDNSKNTLYLQMNSLRAEDTAVYYCARVRDSSDYYGDAFDIWGQGTMVTVSS VL: DIQMTQSPSTLSASVGDRVTITCRASQSISSWLAWYQQKPGKAPKLLIYKASNLESGVPLRFSGSGSGTEFTLTISSLQPDDFATYYCQQYNNYWTFGQGTKVEIK | 456 | 3e+06 | 2.19e+06 | 333 | 174 | 5.73e+06 | – |
| 1210_YY IgG (antibody, V domains shown) VH: QVQLVESGGGVVQPGRSLRLSCAASGFTFSNYGMHWVRQAPGKGLEWVAVIWYDGSKKYYADSVKGRFTISRDNSKNTLYLQMNSLRAEDTAVYYCARVRDSSYYYGDAFDIWGQGTMVTVSS VL: DIQMTQSPSTLSASVGDRVTITCRASQSISSWLAWYQQKPGKAPKLLIYKASNLESGVPLRFSGSGSGTEFTLTISSLQPDDFATYYCQQYYNYWTFGQGTKVEIK | – | – | – | – | – | – | 0.66 |
| antibody 1210 (IgG) (antibody, V domains shown) VH: QVQLVESGGGVVQPGRSLRLSCAASGFTFSNYGMHWVRQAPGKGLEWVAVIWYDGSKKYYADSVKGRFTISRDNSKNTLYLQMNSLRAEDTAVYYCARVRDSSDYYGDAFDIWGQGTMVTVSS VL: DIQMTQSPSTLSASVGDRVTITCRASQSISSWLAWYQQKPGKAPKLLIYKASNLESGVPLRFSGSGSGTEFTLTISSLQPDDFATYYCQQYNNYWTFGQGTKVEIK | – | – | – | – | – | – | < 0.001 |

From patent US12214052 (dated 2025)
